Changes are numbered by the printed parent chain. Names may count otherwise. Like-named read-outs stand apart in the source and are kept apart here. No end group written: not given here.
B1: HPV16 E7(22–32; S31E∙S32E) 11-mer phosphomimetic peptide (peptide)
peptide: LYCYEQLNDEE
notes: also called 11-mer phosphomimetic mutant HPV16 E7 peptide; source: synthetic peptide, bought: Dandicure (Korea)
B2: HPV16 E7(22–39) wild-type 18-mer peptide (peptide)
peptide: LYCYEQLNDSSEEEDEID
notes: HPV16 E7 residues 22–39; source: synthetic peptide, bought: Dandicure (Korea)
B3: HPV16 E7(16–32; S31E∙S32E) 17-mer peptide (peptide)
peptide: QPETTDLYCYEQLNDEE
notes: source: synthetic peptide, bought: Dandicure (Korea)
B4: HPV16 E7(22–32) wild-type 11-mer peptide (peptide)
peptide: LYCYEQLNDSS
notes: as for B3
B5: HPV16 E7(22–39; S31E∙S32E) 18-mer phosphomimetic peptide (peptide)
peptide: LYCYEQLNDEEEEEDEID
notes: HPV16 E7 residues 22–39 with S31E and S32E; source: synthetic peptide, bought: Dandicure (Korea)

Experiments:
[1] = target: T1, AP2-μ2 (μ2 subunit of clathrin-adaptor protein 2, residues 158–435) (Rattus norvegicus, UniProt P84092); test: ITC binding of HPV E7-derived synthetic peptides to recombinant wild-type AP2-μ2; conditions: for binding to AP2-μ2 in ITC (result in words): peptide titrated into wild-type recombinant AP2-μ2
T1 construct: recombinant AP2-μ2 protein (residues 158–435) expressed in E. coli; made in house; host or cells: Escherichia coli BL21(DE3) RIL
T1 sequence (P84092 158-435): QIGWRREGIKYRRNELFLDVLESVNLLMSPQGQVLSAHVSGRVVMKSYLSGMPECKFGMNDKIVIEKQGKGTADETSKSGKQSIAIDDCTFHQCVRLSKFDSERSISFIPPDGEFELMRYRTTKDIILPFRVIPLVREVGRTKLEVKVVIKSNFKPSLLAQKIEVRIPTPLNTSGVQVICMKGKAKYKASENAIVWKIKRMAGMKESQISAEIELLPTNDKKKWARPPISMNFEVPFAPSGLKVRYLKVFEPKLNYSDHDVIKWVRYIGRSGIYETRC
Method: A DNA fragment encoding residues 158–435 of the μ2 subunit of rat AP2 was cloned into a modified pET28a plasmid (Novagen, USA) to produce a recombinant protein tagged with (His)10−maltose-binding protein. The recombinant protein was expressed in Escherichia coli BL21(DE3) RIL cells (Novagen) grown in Luria-Bertani medium at 18°C for 16 h following induction with 0.5 mM isopropyl β-D-thiogalactopyranoside. Proteins were purified using Ni-NTA affinity chromatography (QIAGEN, Germany), followed by size-exclusion chromatography on a HiLoad 26/600 Superdex 200 prep grade column (Cytiva, USA). The (His)10−maltose-binding protein tag was cleaved by TEV protease and removed during subsequent purification steps. Final protein samples were equilibrated in a buffer containing 50 mM Tris-HCl (pH 7.5), 500 mM NaCl, and 3 mM β-mercaptoethanol. […] Crystals were obtained using the sitting-drop vapor diffusion method at 18°C by from a mixture of 1 μl protein solution (10 mg/ml) and 1 μl precipitant solution. […] X-ray diffraction data were collected at beamlines 5C and 7A of the Pohang Accelerator Laboratory (Korea) and processed using HKL2000 ([Otwinowski and Minor, 1997]). Molecular replacement was performed using Phaser ([McCoy et al., 2007]) with the structure of AP2-μ2 complexed with a PIP5KIγ-derived peptide (Protein Data Bank [PDB] code: 3H85) used as the search model ([Kahlfeldt et al., 2010]). Model building and refinement were performed using Coot ([Emsley and Cowtan, 2004]) and PHENIX ([Adams et al., 2010]), respectively.
Recombinant AP2-μ2 protein harboring R402A∙K405A mutations was prepared and purified using the same protocol as that used for the wild-type protein. […] All peptides were dialyzed against the same buffer used for AP2-μ2 purification. Isothermal titration calorimetry (ITC) was performed using recombinant AP2-μ2 proteins and synthetic peptides as previously described ([Jung et al., 2023]; [Lim et al., 2021]).
Fig. 2. ITC analysis of the effect of the Y-x-x-Φ motif on complex formation. Each peptide (0.2 mM) was titrated into 10 μM recombinant AP2-μ2 as indicated. KD and Ka values were deduced from curve fitting of the integrated heat per mole of added ligand. Mutated residues are highlighted in blue.
Fig. 3. ITC analysis of the effect of the acidic cluster region on complex formation. Each peptide was titrated into wild-type (A) or R402A∙K405A mutant (B) recombinant AP2-μ2 as indicated. KD and Ka values were obtained by curve-fitting of the integrated heat per mole of added ligand. Mutated residues are highlighted in blue. […] Negatively charged cluster residues are marked in red.

[2] = target: PIP5KIγ (Homo sapiens); test: ITC; conditions: cited from earlier work
[3] = target: integrin α4 (Homo sapiens); test: ITC; conditions: cited from earlier work
[4] = target: T2, μ2 subunit of clathrin-adaptor protein 2 (AP2-μ2), residues 158–435, wild type (rat, UniProt P84092 158-435); test: ITC; peptide titrated into recombinant AP2-μ2; 50 mM Tris-HCl (pH 7.5), 500 mM NaCl, 3 mM β-mercaptoethanol; in Fig. 2 peptide 0.2 mM into 10 μM AP2-μ2; conditions: both partners purified
T2 construct: also called recombinant AP2-μ2; μ2 subunit of rat AP2; source: E. coli BL21(DE3) RIL, purified (Ni-NTA, SEC)
T2 sequence (looked up): T1 sequence (P84092 158-435)

[5] = target: T3, μ2 subunit of clathrin-adaptor protein 2 (AP2-μ2), residues 158–435, wild type (rat, UniProt P84092 158-435); test: ITC
T3 chain: T1 sequence (P84092 158-435)

[6] = target: T4, AP2-μ2 (residues 158–435) R402A∙K405A mutant (rat, UniProt P84092 158-435, R402A | K405A); test: ITC; peptide titrated into recombinant AP2-μ2; 50 mM Tris-HCl (pH 7.5), 500 mM NaCl, 3 mM β-mercaptoethanol; in Fig. 2 peptide 0.2 mM into 10 μM AP2-μ2; conditions: both partners purified
T4 construct: also called R402A∙K405A mutant recombinant AP2-μ2; source: E. coli, purified by the same protocol as the wild-type protein
T4 sequence: T1 sequence (P84092 158-435) with R245A, K248A

[7] = target: T3, μ2 subunit of clathrin-adaptor protein …; test: ITC

Molecule	binding to AP2-μ2 in ITC (result in words) [1]	Kd [4] [µM]	further results
Y25N: 11-mer HPV16 E7 residues 22–32 synthetic peptide with Y25N mutation (LYCNEQLNDSS)	severely impaired		
LHCYEELSEEETEEEPRF [HPV15 E7(24–41)]			Kd [1]: 13.3 µM
residues 25–42 of HPV18 E7: 18-mer peptide lacking the Y-x-x-Φ motif, residues 25–42 of HPV18 E7 (LLCHEQLSDSEEENDEID; UniProt P06788 25-42, looked up, fragment)	did not bind		
L28A: 11-mer HPV16 E7 residues 22–32 synthetic peptide with L28A mutation (LYCYEQANDSS)	severely impaired		
Y25H: 11-mer HPV16 E7 residues 22–32 synthetic peptide with Y25H mutation (LYCHEQLNDSS)	severely impaired		
AP2-μ2 (from UniProt Q96CW1)			Kd [2]: 6 µM; Kd [3]: 72 µM
B1		1.54	
B2		3.34	Ka [5]: 299000 M⁻¹
B3		1.64	Kd [6]: 8.26 µM
B4		5.88	Ka [7]: 170000 M⁻¹
B5		2.34	

From PMC13577001, “Crystal structures of the μ2 subunit of clathrin-adaptor protein 2 in complex with peptides derived from human papillomavirus 16 E7” (The Journal of Microbiology, 2025)
